Assay results reported in US10407712B2, “Methods, compositions and kits for high throughput kinase activity screening using mass spectrometry and stable isotopes” (President and Fellows of Harvard College, priority 2008, dated 2019).

Columns and labels:
recombinant RSK1 = molecular target: T1, recombinant RSK1 (Homo sapiens, UniProt Q15418); test: In vitro peptide phosphorylation by purified RSK; format: biochemical; conditions: 100 μM peptide, individually reacted
T1 construct: 90 kDa ribosomal S6 kinases 1 (RSK1, 1-735); purchased Cell Signaling Technology (Danvers, Mass.)
From the text: Reaction mixture was supplemented with 0.1% BSA. Other conditions were the same as in FIG. 10A.
Purified human active kinases of Akt1 (full length), extracellular signal-regulated kinase 1 (ERK1, 1-379), mitogen-activated protein kinase kinase 1 (MEK1, 1-393), 90 kDa ribosomal S6 kinases 1 (RSK1, 1-735), cAMP-dependent protein kinase (PKA) catalytic subunit-α (PKA Cα, 1-351), protein kinase Cα (PKCα, full length), epidermal growth factor (EGF) receptor (EGFR, 672-1210), platelet-derived growth factor (PDGF) receptor α (PDGFRα, 550-1090), vascular endothelial growth factor (VEGF) receptor 1 (VEGFR1 784-1338), Src (full length), casein kinase 2 (CK2, full length), Aurora A (1-403), AMP-activated protein kinase α1β1γ1 (AMPK α1β1γ1, full length), glycogen synthase kinase-3α (GSK-3α, 1-483) and MAP/microtubule affinity-regulating kinase 1 (MARK 1, full length) were obtained from Cell Signaling Technology (Danvers, Mass.). Cdc2/cyclin B1 (full length) and insulin-like growth factor (IGF)-I receptor (IGFIR, 959-1367) were obtained from Upstate (Temecula, Calif.).
Peptides were synthesized, purified and quantified as described in Yu et al. 2009 Proc Natl Acad Sci USA 106: 11606-11611, hereby incorporated by reference herein in its entirety. […] Alternatively, reactions were performed using 6 μg cell lysate aliquotes mixed to a final volume of 20 μl. Cell lysate or other kinase source was added to the substrate mixture in 25 mM Tris-Cl, pH 7.5, containing 5 mM ATP, 7.5 mM MgCl2, 0.2 mM EGTA, 7.5 mM β-glycerophosphate, 0.1 mM Na3VO4, and 0.1 mM DTT. The reaction was incubated at 25° C. for 60 min and then terminated by the addition of 100 μl of 1% trifluoroacetic acid (TFA) containing a known amount of an internal standard (typically 20 pmol). Alternatively, the reaction was incubated at 20° C. for 45 min before termination with TFA.
It was observed that basal phosphorylation of these peptides was not affected by knockdown and likely was the result of remaining RSK isoforms or other basophilic kinases (FIG. 5C).

HEK293 cell lysates = test: Single-reaction 90-substrate KAYAK assay, HEK293 lysates with or without insulin; format: biochemical, human; conditions: 5 μM each peptide, HEK293 lysate
Protocol: For stimulation of HEK293 cells or HeLa lines, cells were treated with insulin (100 nM; 10-30 min) EGF (50 ng/ml; 10 min) or phorbol 12-myristate 13-acetate (PMA; 50 or 100 ng/ml; 10 -30 min) at 37° C. for the indicated times after overnight serum-starvation.
Alternatively, cells were washed with PBS once and lysed with ice-cold lysis buffer, 10 mM potassium phosphate, pH 7.0, containing 0.5% NP-40, 0.1% Brij 35, 0.1% deoxycholic acid, 1 mM ethylenediaminetetraacetic acid (EDTA), 5 mM ethylene glycol tetraacetic acid (EGTA), 10 mM MgCl2, 50 mM β-glycerophosphate, 1 mM Na3VO4, 2 mM dithiothreitol (DTT) and protease inhibitor cocktail (Complete, Roche Applied Science, Indianapolis, Ind.). Homogenates were centrifuged at 10,000 rpm for 15 min at 4° C., and the supernatant was used as lysate. Protein concentration was quantified by a modified Bradford assay (Pierce).
Peptides were synthesized, purified and quantified as described in Yu et al. 2009 Proc Natl Acad Sci USA 106: 11606-11611, hereby incorporated by reference herein in its entirety. Each substrate peptide (250 pmol) was mixed to a final concentration of 5 μM in the 50 μL reaction mixture. Alternatively, reactions were performed using 6 μg cell lysate aliquotes mixed to a final volume of 20 μl. Cell lysate or other kinase source was added to the substrate mixture in 25 mM Tris-Cl, pH 7.5, containing 5 mM ATP, 7.5 mM MgCl2, 0.2 mM EGTA, 7.5 mM β-glycerophosphate, 0.1 mM Na3VO4, and 0.1 mM DTT. The reaction was incubated at 25° C. for 60 min and then terminated by the addition of 100 μl of 1% trifluoroacetic acid (TFA) containing a known amount of an internal standard (typically 20 pmol). Alternatively, the reaction was incubated at 20° C. for 45 min before termination with TFA.
Internal standard heavy peptides (5 pmol each) were added as a mixture to the terminated reactions followed by desalting with a solid phase extraction cartridge (SepPak tC18 (50 mg), Waters, Milford, Mass.). Phosphopeptides were enriched as described (Villen et al. 2008 Nat Protoc 3: 1630-1638). […]
For KAYAK analyses, phosphopeptides were dissolved in 5% FA and injected onto a 125-μm-internal diameter fused silica column packed with Magic C18 AQ material (Michrom Bioresources, Auburn, Calif.). Peptides were separated using a two-solvent system: solvent A (0.125% FA and 3% ACN in H2O), solvent B (0.125% FA in ACN) over 32 min gradient, and eluting peptides were directly analyzed using an LTQ-Orbitrap mass spectrometer (Thermo Scientific, San Jose, Calif.) equipped with the electron transfer dissociation option. […]

T1 sequence (Q15418 whole entry): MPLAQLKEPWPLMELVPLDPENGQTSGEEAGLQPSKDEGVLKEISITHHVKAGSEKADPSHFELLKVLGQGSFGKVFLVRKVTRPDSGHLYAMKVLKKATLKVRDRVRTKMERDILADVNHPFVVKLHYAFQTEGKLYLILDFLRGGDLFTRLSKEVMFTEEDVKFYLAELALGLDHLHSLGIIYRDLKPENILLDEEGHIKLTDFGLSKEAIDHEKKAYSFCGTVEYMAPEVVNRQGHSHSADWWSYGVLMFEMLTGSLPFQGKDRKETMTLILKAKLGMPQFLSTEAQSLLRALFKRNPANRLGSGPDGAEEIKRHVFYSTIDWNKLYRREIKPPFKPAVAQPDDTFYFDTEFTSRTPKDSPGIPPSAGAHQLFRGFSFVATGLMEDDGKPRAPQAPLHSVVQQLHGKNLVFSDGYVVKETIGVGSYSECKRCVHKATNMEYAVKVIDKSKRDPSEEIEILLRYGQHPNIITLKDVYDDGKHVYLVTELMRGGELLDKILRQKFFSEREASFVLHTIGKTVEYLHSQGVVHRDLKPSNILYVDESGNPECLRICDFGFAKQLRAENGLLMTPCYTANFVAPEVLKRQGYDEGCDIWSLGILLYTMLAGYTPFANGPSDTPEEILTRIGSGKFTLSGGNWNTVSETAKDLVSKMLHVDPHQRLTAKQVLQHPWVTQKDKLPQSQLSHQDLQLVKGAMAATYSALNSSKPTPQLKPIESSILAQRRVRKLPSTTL

Sequence: RIRTQSFSLQPFR (The sequence was designed and synthesized) [F6]
- phosphorylation by RSK (recombinant RSK1): strong phosphorylation
- phosphorylation in response to insulin stimulation (HEK293 cell lysates): increased phosphorylation
